Laboratory results published in PMC7060721.

Molecular target: ENLARGED VESSEL ELEMENT (EVE) homolog of Physcomitrella patens (Physcomitrella patens)
Assay: SEC-MALS

ENLARGED VESSEL ELEMENT (EVE) homolog of Physcomitrella patens (natural protein)
stoichiometry N: 5
